Assay [1] deals with T1, 676 aa long full-length GP probe (EBOV glycoprotein) (Ebola virus (EBOV), UniProt Q05320 33-676).
T1 sequence: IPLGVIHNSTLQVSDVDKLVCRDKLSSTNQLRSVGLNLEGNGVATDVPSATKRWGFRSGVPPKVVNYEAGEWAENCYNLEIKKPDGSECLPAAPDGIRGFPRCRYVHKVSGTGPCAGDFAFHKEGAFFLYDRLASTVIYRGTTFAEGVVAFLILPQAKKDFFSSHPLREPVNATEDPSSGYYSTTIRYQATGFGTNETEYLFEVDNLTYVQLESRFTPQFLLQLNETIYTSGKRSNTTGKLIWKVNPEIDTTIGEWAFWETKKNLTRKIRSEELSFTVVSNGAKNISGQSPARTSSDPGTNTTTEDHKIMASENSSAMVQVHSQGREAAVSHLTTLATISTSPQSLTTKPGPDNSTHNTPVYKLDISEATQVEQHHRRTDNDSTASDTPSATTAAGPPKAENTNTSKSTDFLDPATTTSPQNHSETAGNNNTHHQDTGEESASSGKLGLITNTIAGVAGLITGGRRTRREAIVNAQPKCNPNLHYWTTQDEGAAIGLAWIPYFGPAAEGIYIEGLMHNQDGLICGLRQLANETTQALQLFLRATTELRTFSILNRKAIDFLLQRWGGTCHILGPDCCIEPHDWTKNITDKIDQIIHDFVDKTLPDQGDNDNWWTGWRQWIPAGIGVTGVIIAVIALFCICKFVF

The target in assay [2] is T1, 676 aa long full-length GP probe (EBOV …). In words: BLI kinetics on full-length GP with the mAb114 site blocked.
Assay [3] has the same target. The experiment in a line: BLI saturation binding, full probe on sensor.

B1: BiSp107 (mAb114×A09) CrossMab bispecific IgG (bispecific antibody)
heavy 1: not shown
light 1: DIQMTQSPSSLSASVGDRITITCRASQAFDNYVAWYQQRPGKVPKLLISAASALHAGVPSRFSGSGSGTHFTLTISSLQPEDVATYYCQNYNSAPLTFGGGTKVEIKSSASTKGPSVFPLAPSSKSTSGGTAALGCLVKDYFPEPVTVSWNSGALTSGVHTFPAVLQSSGLYSLSSVVTVPSSSLGTQTYICNVNHKPSNTKVDKKVEPKSC
heavy 2: not shown
light 2: SYELTQPPSVSVSPGQTATITCSGDKLGDKYTSWFQQRPGQSPLLVIYQDNKRPSGLPARFSGSNSGNTATLTISGTQAMDEADYLCQVWDSGAVFGGGTKLTVLGQPKAAPSVTLFPPSSEELQANKATLVCLISDFYPGAVTVAWKADSSPVKAGVETTTPSKQSNNKYAASSYLSLTPEQWKSHRSYSCQVTHEGSTVEKTVAPTECS
As for B1, in assay [1], the “fold difference in binding kinetics against parental Fab” value was at most 3 fold.

B2: FabA09 (Fab of parental mAbA09) (Fab, V domains shown)
VH: QVQLQESGPGLVKPSETLSLTCVVSGGILSSFYWNWIRQPPGKGLEWIGNIYYSGSPNYNASFQSRVAISVDTSKNQISLNLKSVTAADTAMYYCVRASRAYLWGSYRPTALDLWGQGSLVTVSS
VL: SYELTQPPSVSVSPGQTATITCSGDKLGDKYTSWFQQRPGQSPLLVIYQDNKRPSGLPARFSGSNSGNTATLTISGTQAMDEADYLCQVWDSGAVFGGGTKLTVL
As for B2, the “fold on-rate against BiSp107” value in assay [2] turned out to be 3.4 fold.

B3: mAb114 (parental IgG) (antibody, V domains shown)
VH: EVQLVESGGGLIQPGGSLRLSCAASGFALRMYDMHWVRQTIDKRLEWVSAVGPSGDTYYADSVKGRFAVSRENAKNSLSLQMNSLTAGDTAIYYCVRSDRGVAGLFDSWGQGILVTVSS
VL: DIQMTQSPSSLSASVGDRITITCRASQAFDNYVAWYQQRPGKVPKLLISAASALHAGVPSRFSGSGSGTHFTLTISSLQPEDVATYYCQNYNSAPLTFGGGTKVEIKS
In the case of B3, in assay [3], the “fold binding response at saturation against A09” value was determined as 2 fold.

The values are drawn from patent publication US20250333484A1 (US Dept. of Health and Human Services, published 2025).
